# According to the nanobody polyreactivity screen of Harvey et al. (2022):
# Test: yeast display, Sf9 membrane polyspecificity reagent, FACS + sequencing; frameworks hold sequencing errors
# Outline: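 Sorting gates, low and high (top ~1%), were placed on anti-HA fluorescence to track expression and on streptavidin fluorescence to track reagent binding. A clone's polyreactivity label is taken from the gate it came out of. The reagent was 10% biotinylated, detergent-solubilized Sf9 membrane, applied for 1 hour at 4 °C to galactose-induced yeast display cells.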
row,Sequence,polyreactivity (PSR sort gate)
1,QVQLVESGGGLVQAGGSLRLSCAASGSIFRINAMGWYRQAPGKERELVAAISWSGGSTYYADSVKGRFTISRDNAKNTVYVQMNSLKPEDTAVYYCAAVVSKSSFDYWGQGTQVTVSS,low polyreactivity
2,QVQLVESVGGLVQAGGSLRLSCAASGSTFVDYAMGWYRQAPGKERELVAGINGSGGSTYYADSVKGRFTISRDNAKNTVYLQMNSLKPEDTAVYYCNARNPWRKRSQGYSWGQGTQVTVSS,low polyreactivity
3,QVQLVESGGGLVQAGGSLRLSCAASGRNFRHYAMGWDRQAPGKERELVAAIRWSGGSTYYADSVKGRFTISRDNAKNTVYLQMNSLKPEETAVYYCATRDAVGHRPSGPYQLYDYWGQGTQVTVSS,low polyreactivity
4,QVQLVESGACLVQAGGRLRLSCAASGRICGLNAMVWYRQAPGKERELVASITYSGGSTYYADSVKGRFTISRDNAKNTVYLQMNSLKPEYTADYYCAADSWYYWYSTYDYWGQGTQVTVSS,high polyreactivity
5,QVQLVESGGGLVQAGGSLSLSCAASARIFYGYAMGWYRQEPGKEREFVAAITSGGRTYYADSVKGRFTISRDNAKNTVYLQMNSLKPEDTAVYYCAAAQYYRYGYWGQGTQVTVSS,high polyreactivity
6,QVQLVESVGGLVQAGGSLRLSCAASGRIFHWYAMGWYRQAPGKERELVAAIRWTGGSTYYADSVKGRFTISRDNAKNTVYLQMNSLKPEDTAVYYCAAKGYTGIFYEMDYWGQGTQVTVSS,low polyreactivity
7,QVQLVESGGGLVQAGGSLRLSCAASGRIFVHYAMGWYRQAPGKEREWVAAITSGSSTNYADSVKGRFTISRDNAKNTVYLQMNSLKPEDTAVYYCAVDDWLDWLCADFGYWGQGTQVTVSS,low polyreactivity
8,PLQLVESGGGLVQAGGSLRLSCAASGIIFGRYTMGWYRQAPGKERELFAAITSSGITYYADSVNGRFTISRDNAKNTVYLQLNSLKPEDTAVYYCNADYSIPGYYWPYDYWGLGTQVTVSS,low polyreactivity
9,QVQLVESGGGLVQAGGSLRLSCAASGTFSQYAMGWYRQAPGKERQLVAAISQGGGSTYYADSVKGRFTISRDNAKNTVYLQMNSLKPEDTAVYYCARSRSYWGIVYGRYDYWGQGTQVTVSS,high polyreactivity
10,QVQLVESGGGLVQAGGSLRLSCAASGFTIERYAMGWYRQAPGKERELVAVISTSGGSTYYADSVKGRFTISRDNAKNTVYLQMNSLKPEDTAVYYCAKDGSSRGDYHFGWGYYYWGQGSQVTVSS,low polyreactivity
11,QVQLVESGGGLVQAGGSLRLSCAASGRIFWNYAMGWYRQAPGKERELVAGISSSDGSTYYADSVKGRFTISRDNAKNTVYFQMNSLKPEDTAVYYCAVDKGGRYHVENYYWGQGTQVTVSS,low polyreactivity
12,QVQLVESGGGLVQAGGSLRLSCAASGGIFFPNAIGWYRQAPGKERELVAAISWSAGSTYYADSVKGRFTISRDNAKNTVYLQMNSLKPEDTAVYYCAAAGSNYTVWYGYYYWGQGTQVTVSS,low polyreactivity
13,HVHLVESGGGLVQAGGSLRLSCAASGRTFSRYAMGWYRQAPGKERELVAAITSGGSTNYADSVKGRFTISRDNAKNTVYLQKNSLKPEDTAVYYCAKRYFRSSRDGLGTTHPYDYWGQGTQVTVSS,high polyreactivity
14,QVQLVDSGGGLVQAGGSLRLSCAASGGTFDTYAMGWYRQAPGKERELVAVIRASGGDTYYADSVKGRFTISRDNAKNTVYLQMNSLKPEDTAVYYCAAVLPFKYDYWGQGTQVTVSS,low polyreactivity
15,QVHLVESGGALVQAGGSLRLSCAASGRIFGGYTMGWYRQAPGKEREFVAAITSSGGSTYYADSVKGRFTISRDNAKNTVYLQMNSLKPEDTAVYYCAVDDYYYDYDYWGQGTQVTVSS,low polyreactivity
16,QVQLVESGGGLVQAGGRLRLSCAASGIIFGYYALGWYRQAPGKERELVAAISSGGTTSYADSVKGRFTISRDNAKNTDYLQMNSLKPEDTAVYYCAADYDAAWYKDGYYYWGQGTQVTVSS,low polyreactivity
17,QVQLVESGGGLVQAGGSLRLSCAASGSTFPGNAMGWYRQAPGKERELVAAIDTSGGSTYYADSVKGRFTISRDNAKNTVYLQMNSLKAEDTAVYYCDADYLIEMDYWGQGTQVTVSS,low polyreactivity
